How the values were obtained:
[1] = molecular target: T1, Human MMP-9 catalytic domain (BIOMOL, SE-244) (human, UniProt P14780 107-457, limits assumed); experiment: Ki,app, enzyme inhibition assay (fluorogenic peptide substrate), small-scale sFab
T1 construct: domain: catalytic domain; also called Cat-huMMP-9; cat-huMMP-9

[2] = molecular target: T2, human MMP-2 (Biomol #SE-237) (human, UniProt P08253 110-452, limits assumed); experiment: Ki,app, enzyme inhibition assay (fluorogenic peptide substrate), medium-scale sFab
T2 construct: also called hMMP-2
T2 sequence (P08253 110-452 limits assumed): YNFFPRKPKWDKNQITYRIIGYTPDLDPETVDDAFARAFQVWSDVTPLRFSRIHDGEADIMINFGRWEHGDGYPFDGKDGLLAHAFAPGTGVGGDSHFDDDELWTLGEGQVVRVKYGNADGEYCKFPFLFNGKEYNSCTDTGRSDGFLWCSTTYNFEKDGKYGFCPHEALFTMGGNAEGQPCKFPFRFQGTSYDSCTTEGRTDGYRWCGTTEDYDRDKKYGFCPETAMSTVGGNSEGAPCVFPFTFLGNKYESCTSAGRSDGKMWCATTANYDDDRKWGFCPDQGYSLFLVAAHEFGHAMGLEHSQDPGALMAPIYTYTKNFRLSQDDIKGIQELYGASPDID

[3] = molecular target: T1, Human MMP-9 catalytic domain (BIOMOL, …); experiment: as above
[4] = molecular target: T3, Mouse MMP-9 (R&D, 909-MM), APMA-activated (mouse, UniProt P41245 108-730, limits assumed); experiment: as above
T3 construct: also called mMMP-9; mouse MMP-9 (R&D Systems #909-MM-010)
T3 sequence (P41245 108-730 limits assumed): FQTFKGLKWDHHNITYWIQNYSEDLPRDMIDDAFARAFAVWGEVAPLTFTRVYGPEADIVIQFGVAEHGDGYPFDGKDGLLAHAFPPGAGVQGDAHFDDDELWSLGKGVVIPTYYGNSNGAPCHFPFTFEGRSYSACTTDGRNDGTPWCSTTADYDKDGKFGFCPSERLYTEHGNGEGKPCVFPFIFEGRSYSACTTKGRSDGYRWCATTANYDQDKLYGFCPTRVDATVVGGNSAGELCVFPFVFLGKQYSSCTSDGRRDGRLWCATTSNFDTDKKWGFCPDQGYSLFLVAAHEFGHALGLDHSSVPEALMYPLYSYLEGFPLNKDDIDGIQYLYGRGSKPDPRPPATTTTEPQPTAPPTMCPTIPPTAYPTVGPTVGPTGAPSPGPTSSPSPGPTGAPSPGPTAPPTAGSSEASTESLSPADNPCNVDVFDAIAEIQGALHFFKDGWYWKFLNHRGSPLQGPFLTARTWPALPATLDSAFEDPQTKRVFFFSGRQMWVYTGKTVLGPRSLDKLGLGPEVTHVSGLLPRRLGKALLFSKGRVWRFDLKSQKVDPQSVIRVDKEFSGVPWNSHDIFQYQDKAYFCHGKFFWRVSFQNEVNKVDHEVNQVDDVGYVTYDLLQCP

MMP-12 (Biomol SE-138) = MMP-12 (Biomol SE-138) (UniProt P39900 106-263, limits assumed); experiment: cell-based or functional assay
Sequence of MMP-12 (Biomol SE-138) (P39900 106-263 limits assumed): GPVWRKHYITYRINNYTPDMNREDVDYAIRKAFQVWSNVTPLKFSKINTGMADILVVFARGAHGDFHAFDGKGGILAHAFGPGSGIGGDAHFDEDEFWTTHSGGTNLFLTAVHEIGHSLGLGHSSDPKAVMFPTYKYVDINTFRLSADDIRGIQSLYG

TACE (R&D Systems) = TACE (R&D Systems) (UniProt P78536 215-671, limits assumed); experiment: cell-based or functional assay
Sequence of TACE (R&D Systems) (P78536 215-671 limits assumed): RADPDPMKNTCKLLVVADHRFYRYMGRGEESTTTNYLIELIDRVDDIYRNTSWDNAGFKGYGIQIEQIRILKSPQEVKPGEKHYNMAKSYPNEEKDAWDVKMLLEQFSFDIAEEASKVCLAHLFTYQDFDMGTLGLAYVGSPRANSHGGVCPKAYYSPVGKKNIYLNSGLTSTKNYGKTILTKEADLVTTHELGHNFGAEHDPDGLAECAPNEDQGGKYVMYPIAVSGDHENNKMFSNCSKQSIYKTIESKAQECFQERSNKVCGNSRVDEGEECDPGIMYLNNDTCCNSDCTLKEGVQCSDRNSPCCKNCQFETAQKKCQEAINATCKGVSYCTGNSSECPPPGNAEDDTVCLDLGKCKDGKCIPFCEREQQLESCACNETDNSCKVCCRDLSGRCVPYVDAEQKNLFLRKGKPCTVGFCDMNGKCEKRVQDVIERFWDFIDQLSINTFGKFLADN

[5] = molecular target: MMP-15 (Calbiochem #475938) (UniProt P51511 132-304, limits assumed); experiment: cell-based or functional assay
Sequence of MMP-15 (Calbiochem #475938) (P51511 132-304 limits assumed): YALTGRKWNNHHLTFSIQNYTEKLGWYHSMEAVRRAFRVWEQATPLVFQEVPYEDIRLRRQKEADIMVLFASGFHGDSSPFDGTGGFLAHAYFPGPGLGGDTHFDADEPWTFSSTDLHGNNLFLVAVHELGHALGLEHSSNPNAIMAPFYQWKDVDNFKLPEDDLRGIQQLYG

MMP-7 (Biomol SE-181) = molecular target: T4, MMP-7 (Biomol SE-181) (UniProt P09237 95-267); experiment: cell-based or functional assay
T4 sequence (looked up): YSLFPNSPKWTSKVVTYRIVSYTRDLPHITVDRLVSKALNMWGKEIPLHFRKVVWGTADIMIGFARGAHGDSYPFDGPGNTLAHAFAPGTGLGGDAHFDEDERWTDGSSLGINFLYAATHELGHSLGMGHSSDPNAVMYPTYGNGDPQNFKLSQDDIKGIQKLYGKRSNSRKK

MMP-14 (Biomol SE-259) = MMP-14 (Biomol SE-259) (UniProt P50281 112-284, limits assumed); experiment: cell-based or functional assay
[6] = molecular target: MMP-3 (R&D Systems #513-MP) (UniProt P08254 18-477, limits assumed); experiment: cell-based or functional assay
Sequence of MMP-3 (R&D Systems #513-MP) (P08254 18-477 limits assumed): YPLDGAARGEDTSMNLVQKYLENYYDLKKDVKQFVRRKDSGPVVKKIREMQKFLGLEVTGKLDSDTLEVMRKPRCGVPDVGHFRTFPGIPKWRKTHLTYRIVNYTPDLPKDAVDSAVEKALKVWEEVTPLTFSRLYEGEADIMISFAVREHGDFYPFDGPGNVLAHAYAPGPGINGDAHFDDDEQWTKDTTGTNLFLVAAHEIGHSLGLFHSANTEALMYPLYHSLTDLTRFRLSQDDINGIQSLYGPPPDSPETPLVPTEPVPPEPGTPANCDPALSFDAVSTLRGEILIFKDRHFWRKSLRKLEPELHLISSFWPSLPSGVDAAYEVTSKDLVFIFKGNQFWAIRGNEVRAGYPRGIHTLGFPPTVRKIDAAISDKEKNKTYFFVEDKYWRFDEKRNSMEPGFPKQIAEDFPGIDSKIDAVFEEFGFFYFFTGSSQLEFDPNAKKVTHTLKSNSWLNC

MMP-1 (Biomol SE-180) = molecular target: T5, MMP-1 (Biomol SE-180) (UniProt P03956 100-269, limits assumed); experiment: cell-based or functional assay
T5 sequence (looked up): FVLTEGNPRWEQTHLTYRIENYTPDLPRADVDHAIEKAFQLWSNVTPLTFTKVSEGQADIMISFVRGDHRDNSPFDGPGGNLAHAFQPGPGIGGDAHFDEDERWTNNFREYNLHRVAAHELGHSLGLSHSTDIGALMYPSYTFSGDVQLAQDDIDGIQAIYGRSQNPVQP

MMP-10 (Biomol SE-329) = MMP-10 (Biomol SE-329) (UniProt P09238 99-265, limits assumed); experiment: cell-based or functional assay
Sequence of MMP-10 (Biomol SE-329) (P09238 99-265 limits assumed): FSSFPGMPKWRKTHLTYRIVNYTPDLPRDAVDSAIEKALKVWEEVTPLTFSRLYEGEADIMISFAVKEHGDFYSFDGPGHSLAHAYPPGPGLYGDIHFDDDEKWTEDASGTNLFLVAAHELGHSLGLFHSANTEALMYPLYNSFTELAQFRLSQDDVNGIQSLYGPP

MMP-13 (Biomol SE-246) = MMP-13 (Biomol SE-246) (UniProt P45452 104-274); experiment: cell-based or functional assay
[7] = molecular target: MMP-16 (Calbiochem #475939) (UniProt P51512 120-292, limits assumed); experiment: cell-based or functional assay
Sequence of MMP-16 (Calbiochem #475939) (P51512 120-292 limits assumed): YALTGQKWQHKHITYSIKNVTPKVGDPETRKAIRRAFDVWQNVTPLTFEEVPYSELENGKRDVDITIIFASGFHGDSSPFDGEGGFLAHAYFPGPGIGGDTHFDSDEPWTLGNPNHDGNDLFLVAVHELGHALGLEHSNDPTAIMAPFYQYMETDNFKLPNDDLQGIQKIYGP

MMP-8 (Biomol SE-255) = MMP-8 (Biomol SE-255) (UniProt P22894 100-262, limits assumed); experiment: cell-based or functional assay
Sequence of MMP-8 (Biomol SE-255) (P22894 100-262 limits assumed): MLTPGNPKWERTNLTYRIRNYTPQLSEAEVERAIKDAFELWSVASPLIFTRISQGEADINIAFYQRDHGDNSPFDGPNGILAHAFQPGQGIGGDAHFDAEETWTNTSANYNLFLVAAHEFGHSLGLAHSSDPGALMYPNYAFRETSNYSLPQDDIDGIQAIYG

[8] = molecular target: T2, human MMP-2 (Biomol #SE-237); experiment: Ki,app, enzyme inhibition assay (fluorogenic peptide substrate), IgG
[9] = molecular target: T1, Human MMP-9 catalytic domain (BIOMOL, …); experiment: as above
[10] = molecular target: T3, Mouse MMP-9 (R&D, 909-MM), …; experiment: as above
[11] = molecular target: T6, MMP-26 (Dyax prep #020209) (UniProt Q9NRE1 90-261, limits assumed); experiment: cell-based or functional assay
T6 sequence (looked up): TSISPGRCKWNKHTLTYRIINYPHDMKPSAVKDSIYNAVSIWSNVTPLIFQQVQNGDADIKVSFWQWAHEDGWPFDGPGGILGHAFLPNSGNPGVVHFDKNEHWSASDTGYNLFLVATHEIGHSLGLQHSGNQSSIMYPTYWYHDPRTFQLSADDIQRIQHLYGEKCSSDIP

[12] = molecular target: T2, human MMP-2 (Biomol #SE-237); experiment: Ki,app, enzyme inhibition assay (fluorogenic peptide substrate), medium-scale sFab; remark: listed apart in the source
Method: (§1) Target enzymes were incubated with inhibitor for two hours at 30° C. in reaction buffer (50 mM Tris-HCl pH 7.5, 150 mM NaCl, 5 mM CaCl₂, 0.05% Brij-35) in a total volume of 90 μL using a white 96 well plate (Costar). […] An anti-MMP-2 antibody (R&D Systems polyclonal IgG #AF902) was similarly tested with 200 nM as the highest inhibitor concentration. Reactions were initiated by the addition of 10 μL of a 10× concentrated stock of substrate, Mca-Lys-Pro-Leu-Gly-Leu-Dap(Dnp)-Ala-Arg-NH2, (Bachem M-2350), at final concentration of 10 μM and monitored at 30° C. in a Molecular Devices' Gemini fluorescence plate reader. The excitation and emission wavelengths were set at 328 nm and 393 nm, respectively. Kinetic data were acquired by the increase in fluorescence, and initial rates for each condition were plotted against the total inhibitor concentration. Reactions were performed in duplicates and all data replicates were plotted in a single graph and fit to the following equation¹: […]

[13] = molecular target: T1, Human MMP-9 catalytic domain (BIOMOL, …); experiment: as above; remark: listed apart in the source
Method: as §1

[14] = molecular target: T3, Mouse MMP-9 (R&D, 909-MM), …; experiment: as above; remark: listed apart in the source
Method: as §1

[15] = molecular target: T1, Human MMP-9 catalytic domain (BIOMOL, …); experiment: Ki,app, enzyme inhibition assay (fluorogenic peptide substrate), small-scale sFab; remark: listed apart in the source
Method: as §1

[16] = molecular target: T2, human MMP-2 (Biomol #SE-237); experiment: as above
Method: as §1

[17] = molecular target: T3, Mouse MMP-9 (R&D, 909-MM), …; experiment: as above
Method: as §1

T1 sequence (P14780 107-457 limits assumed): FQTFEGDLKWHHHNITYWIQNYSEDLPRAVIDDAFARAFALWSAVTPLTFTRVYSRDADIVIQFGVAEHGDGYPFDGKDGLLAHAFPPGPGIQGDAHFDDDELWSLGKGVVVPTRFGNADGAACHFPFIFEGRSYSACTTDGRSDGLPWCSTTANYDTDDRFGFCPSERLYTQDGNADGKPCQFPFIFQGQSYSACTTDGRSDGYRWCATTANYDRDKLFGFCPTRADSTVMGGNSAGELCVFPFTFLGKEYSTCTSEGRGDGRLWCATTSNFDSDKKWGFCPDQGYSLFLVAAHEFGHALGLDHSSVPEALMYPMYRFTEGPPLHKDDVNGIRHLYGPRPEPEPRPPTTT

B1: M0279-A03 (Fab, V domains shown)
VH: EVQLLESGGGLVQPGGSLRLSCAASGFTFSQYPMWWVRQAPGKGLEWVSYIVPSGGRTYYADSVKGRFTISRDNSKNTLYLQMNSLRAEDTAVYYCAKDRAYGDYVGWNGFDYWGQGTLVTVSS
VL: DIQMTQSPATLSVSPGERVTLSCKASHSISRNLAWYQQKPGQAPRLLIFGASTRATGIPARFSGSGSGTEFTLTISSLEAEDFAVYYCQQRRNWPVTFGPGTKLDFK
notes: sFab; variable domains only; also called M279-A03; M279-A03 sFab
- Ki [1]: 2.2 nM
- Ki [2]: > 430 nM
- Ki [3]: 1.6 nM
- Ki [4]: 24 nM
- IC50 (enzyme inhibition) (MMP-12 (Biomol SE-138)): > 500 nM
- IC50 (enzyme inhibition) (TACE (R&D Systems)): > 500 nM
- IC50 (enzyme inhibition) [5]: > 500 nM
- IC50 (enzyme inhibition) (MMP-7 (Biomol SE-181)): > 500 nM
- IC50 (enzyme inhibition) (MMP-14 (Biomol SE-259)): > 500 nM
- IC50 (enzyme inhibition) [6]: > 500 nM
- IC50 (enzyme inhibition) (MMP-1 (Biomol SE-180)): > 500 nM
- IC50 (enzyme inhibition) (MMP-10 (Biomol SE-329)): > 500 nM
- IC50 (enzyme inhibition) (MMP-13 (Biomol SE-246)): > 500 nM
- IC50 (enzyme inhibition) [7]: > 500 nM
- IC50 (enzyme inhibition) (MMP-8 (Biomol SE-255)): > 500 nM

B2: X0106-A01 (antibody, V domains shown)
VH: EVQLLESGGGLVQPGGSLRLSCAASGFTFSHYDMWWVRQAPGKGLEWVSVIYSSGGPTFYADSVKGRFTISRDNSKNTLYLQMNSLRAEDTAVYYCAKDRAYGDYVGWNGFDYWGQGTLVTVSS
VL: EIVLTQSPATLSLSPGERATLSCRASQSISSFLAWYQQKPGQAPRLLIYDASYRATGIPARFSGSGSGTDFTLTISSLEPEDFAVYYCQQRGNWPITFGQGTRLEIK
notes: Produced and tested as IgG1; germlined, optimized version of M0256-D11; also called X106-A01; X106-A01 IgG
- Ki [8]: 0.34 nM
- Ki [9]: 0.1 nM
- Ki [10]: 0.25 nM
- IC50 (enzyme inhibition) (MMP-12 (Biomol SE-138)): > 1000 nM
- IC50 (enzyme inhibition) [11]: 12 nM
- IC50 (enzyme inhibition) (TACE (R&D Systems)): > 1000 nM
- IC50 (enzyme inhibition) [5]: > 1000 nM
- IC50 (enzyme inhibition) (MMP-7 (Biomol SE-181)): 900 nM
- IC50 (enzyme inhibition) (MMP-14 (Biomol SE-259)): > 1000 nM
- IC50 (enzyme inhibition) [6]: > 1000 nM
- IC50 (enzyme inhibition) (MMP-1 (Biomol SE-180)): > 1000 nM
- IC50 (enzyme inhibition) (MMP-10 (Biomol SE-329)): > 1000 nM
- IC50 (enzyme inhibition) (MMP-13 (Biomol SE-246)): > 1000 nM
- IC50 (enzyme inhibition) [7]: > 1000 nM
- IC50 (enzyme inhibition) (MMP-8 (Biomol SE-255)): > 1000 nM

B3: M0288-C08 (Fab, V domains shown)
VH: EVQLLESGGGLVQPGGSLRLSCAASGFTFSQYPMWWVRQAPGKGLEWVSYIVPSGGRTYYADSVKGRFTISRDNSKNTLYLQMNSLRAEDTAVYYCAKDRAYGDYVGWNGFDYWGQGTLVTVSS
VL: DIQMTQSPGTLSVSPGERVTLSCRASQSVSSYLAWYQQKPGQAPRLLIYGASTRVTGIPARFSGSGSGTEFTLTISSLQSEDFAVYYCQQRSSWPITFGQGTRLEIK
notes: sFab; variable domains only; also called M288-C08
- Ki [1]: 2 nM
- Ki [2]: > 1000 nM
- Ki [3]: 1.8 nM
- Ki [4]: 13 nM

B4: M0256-D11 (Fab, V domains shown)
VH: EVQLLESGGGLVQPGGSLRLSCAASGFTFSHYDMWWVRQAPGKGLEWVSVIYSSGGPTFYADSVKGRFTISRDNSKNTLYLQMNSLRAEDTAVYYCAKDRAYGDYVGWNGFDYWGQGTLVTVSS
VL: DIQMTQSPATLSLSPGERATLSCRASQSISSFLAWYQQKPGQAPRLLIYDASYRATGIPARFSGSGSGTDFTLTISSLEPEDYAVYYCQQRGNWPITFGQGTRLEIK
notes: sFab; variable domains only; also called M256-D11; 539A-M0256-D11
- Ki [12]: 0.5 nM
- Ki [13]: 0.3 nM
- Ki [14]: 0.6 nM
- Ki [15]: 0.3 nM

B5: M0274-G08 (Fab, V domains shown)
VH: EVQLLESGGGLVQPGGSLRLSCAASGFTFSVYDMWWVRQAPGKGLEWVSVIYPSGGATYYADSVKGRFTISRDNSKNTLYLQMNSLRAEDTAVYYCAKDRAYGDYVGWNGFDYWGQGTLVTVSS
VL: DIQMTQSPATLSLSPGERATLSCRASQSISSFLAWYQQKPGQAPRLLIYDASYRATGIPARFSGSGSGTDFTLTISSLEPEDYAVYYCQQRGNWPITFGQGTRLEIK
notes: sFab; variable domains only; also called M274-G08
- Ki [12]: 0.4 nM
- Ki [13]: 0.5 nM
- Ki [14]: 0.6 nM
- Ki [15]: 0.6 nM

B6: M0276-F11 (Fab, V domains shown)
VH: EVQLLESGGGLVQPGGSLRLSCAASGFTFSWYDMWWVRQAPGKGLEWVSVIYSSGGPTFYADSVKGRFTISRDNSKNTLYLQMNSLRAEDTAVYYCAKDRAYGDYVGWNGFDYWGQGTLVTVSS
VL: DIQMTQSPATLSLSPGERATLSCRASQSISSFLAWYQQKPGQAPRLLIYDASYRATGIPARFSGSGSGTDFTLTISSLEPEDYAVYYCQQRGNWPITFGQGTRLEIK
notes: sFab; variable domains only; also called M276-F11
- Ki [12]: 0.4 nM
- Ki [13]: 0.4 nM
- Ki [14]: 0.6 nM
- Ki [16]: 0.2 nM
- Ki [15]: 0.2 nM
- Ki [17]: 0.4 nM

B7: M0307-F04 (Fab, V domains shown)
VH: EVQLLESGGGLVQPGGSLRLSCAASGFTFSLYDMWWVRQAPGKGLEWVSVIYSSGGYTGYADSVKGRFTISRDNSKNTLYLQMNSLRAEDTAVYYCAKDRAYGDYVGWNGFDYWGQGTLVTVSS
VL: DIQMTQSPATLSLSPGERATLSCRASQSISSFLAWYQQKPGQAPRLLIYDASYRATGIPARFSGSGSGTDFTLTISSLEPEDYAVYYCQQRGNWPITFGQGTRLEIK
notes: sFab; variable domains only; also called M307-F04
- Ki [12]: 0.4 nM
- Ki [13]: 0.8 nM
- Ki [14]: 0.4 nM
- Ki [16]: 0.1 nM
- Ki [15]: 0.1 nM
- Ki [17]: 0.1 nM

B8: M0275-D03 (Fab, V domains shown)
VH: EVQLLESGGGLVQPGGSLRLSCAASGFTFSQYDMWWVRQAPGKGLEWVSVIYPSGTTFYADSVKGRFTISRDNSKNTLYLQMNSLRAEDTAVYYCAKDRAYGDYVGWNGFDYWGQGTLVTVSS
VL: DIQMTQSPATLSLSPGERATLSCRASQSISSFLAWYQQKPGQAPRLLIYDASYRATGIPARFSGSGSGTDFTLTISSLEPEDYAVYYCQQRGNWPITFGQGTRLEIK
notes: sFab; variable domains only; also called M275-D03
- Ki [12]: 0.5 nM
- Ki [13]: 0.6 nM
- Ki [14]: 1 nM
- Ki [16]: 0.7 nM
- Ki [15]: 0.6 nM
- Ki [17]: 1.2 nM

From patent US20110135573A1 (DYAX, published 2011)
